For 1 protein, Km results are on record in ChEMBL document CHEMBL1122856, “Study on the inhibition of adenosine deaminase” (J Med Chem, 1985).

Substrate in this series: Cc1c([C@@H](C)O)ncn1C1O[C@H](CO)[C@@H](O)[C@H]1O

Description: Ability to inhibit the deamination of adenosine by calf intestine adenosine deaminase expressed as Km

B1: Adenosine deaminase (Bos taurus), P56658 (protein)
chain: MAQTPAFNKPKVELHVHLDGAIKPETILYYGRKRGIALPADTPEELQNIIGMDKPLSLPEFLAKFDYYMPAIAGCREAVKRIAYEFVEMKAKDGVVYVEVRYSPHLLANSKVEPIPWNQAEGDLTPDEVVSLVNQGLQEGERDFGVKVRSILCCMRHQPSWSSEVVELCKKYREQTVVAIDLAGDETIEGSSLFPGHVKAYAEAVKSGVHRTVHAGEVGSANVVKEAVDTLKTERLGHGYHTLEDATLYNRLRQENMHFEVCPWSSYLTGAWKPDTEHPVVRFKNDQVNYSLNTDDPLIFKSTLDTDYQMTKNEMGFTEEEFKRLNINAAKSSFLPEDEKKELLDLLYKAYGMPSPASAEQCL
In the case of B1, the Km was found to be 39 µM.
